These results are taken from publication PMC12491784, “A Circular RNA Promotes Tumor Metastasis through Stabilizing MSI2 Protein in Pancreatic Ductal Adenocarcinoma”.

For data set [1], the target named is T1, MSI2 (Musashi-2), recombinant (UniProt Q96DH6 1-328). As to the kind of experiment: EMSA; EMSA: kit binding buffer (Beyotime GS009), 25 C 1 h, 5% native PAGE; RNA pull-down: 100 pmol biotinylated probe on streptavidin beads, 4 C 4 h; high-stringency. The settings on record: protein: recombinant; tags: GST; label: 5' biotin. For orientation: Mobility shift assays separate free from complexed probe on a gel.

Data set [2] has as its target T1, MSI2 (Musashi-2), recombinant. As to the kind of experiment: pull-down; EMSA: kit binding buffer (Beyotime GS009), 25 C 1 h, 5% native PAGE; RNA pull-down: 100 pmol biotinylated probe on streptavidin beads, 4 C 4 h; high-stringency. The settings on record: protein: recombinant; tags: GST; label: 5' biotin.

T1 sequence (Q96DH6 whole entry): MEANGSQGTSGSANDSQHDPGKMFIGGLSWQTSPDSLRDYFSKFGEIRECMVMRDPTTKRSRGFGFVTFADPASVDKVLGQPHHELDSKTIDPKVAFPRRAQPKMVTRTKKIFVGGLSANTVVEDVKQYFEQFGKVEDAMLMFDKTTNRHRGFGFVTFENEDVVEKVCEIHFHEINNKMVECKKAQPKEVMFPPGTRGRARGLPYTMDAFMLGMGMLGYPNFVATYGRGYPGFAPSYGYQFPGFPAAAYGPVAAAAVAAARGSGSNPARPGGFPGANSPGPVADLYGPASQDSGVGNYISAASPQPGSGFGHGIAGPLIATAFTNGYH

For GUGUGCUCCAUAGUUUAUCAAAAG (ssRNA) [P1 RNA probe], the binding result in data set [1] was “binds”.

Regarding UCCUAUCAAAUUAGUAAACCAAAG (ssRNA) [P2 RNA probe], in data set [1], the binding result is on record as “binds”.

With GUGUGCUCCAAACUUUAUCAAAAG (ssRNA) [P1-mut RNA probe], the binding result in data set [2] is “no binding”.

Turning to UCCUAUCAAAUAACUAAACCAAAG (ssRNA) [P2-mut RNA probe], the binding result in data set [2] was “no binding”.
